Laboratory results as given in patent publication US20240115706A1 (LG CHEM, published 2024).

How the values were obtained:
[1] = molecular target: T1, human GUCY2C-rCD4 fusion protein (Homo sapiens (human); Rattus norvegicus, biotinylated (site not given)); assay: ranking ELISA (DELFIA), 5 nM scFv on anti-FLAG, biotinylated antigen, streptavidin-Eu
T1 construct: GUCY2C conjugated/fused with CD4; also called Hu-GUCY2C-rCD4; human GUCY2C recombinant antigen
Experimental: (§1) More specifically, after coating an anti-FLAG antibody in a MaxiSorb plate and binding by adding scFvs obtained previously, the remaining scFvs were removed by a washing process. Here, a biotinylated human-GUCY2C-rCD4 protein was incubated and combined, and then the affinity to the antigen was measured by reading signals by DELFIA enhancement with color development through streptavidin-Europlum.

[2] = molecular target: T2, mouse GUCY2C-rCD4 fusion protein (Mus musculus (house mouse); Rattus …, limits assumed); assay: ELISA (DELFIA), antigen on streptavidin plate, scFv culture solution, Eu-anti-tag Ab
T2 construct: Prepared by the same method as the human antigen; also called Mu-GUCY2C-rCD4; murine GUCY2C recombinant antigen
T2 chain: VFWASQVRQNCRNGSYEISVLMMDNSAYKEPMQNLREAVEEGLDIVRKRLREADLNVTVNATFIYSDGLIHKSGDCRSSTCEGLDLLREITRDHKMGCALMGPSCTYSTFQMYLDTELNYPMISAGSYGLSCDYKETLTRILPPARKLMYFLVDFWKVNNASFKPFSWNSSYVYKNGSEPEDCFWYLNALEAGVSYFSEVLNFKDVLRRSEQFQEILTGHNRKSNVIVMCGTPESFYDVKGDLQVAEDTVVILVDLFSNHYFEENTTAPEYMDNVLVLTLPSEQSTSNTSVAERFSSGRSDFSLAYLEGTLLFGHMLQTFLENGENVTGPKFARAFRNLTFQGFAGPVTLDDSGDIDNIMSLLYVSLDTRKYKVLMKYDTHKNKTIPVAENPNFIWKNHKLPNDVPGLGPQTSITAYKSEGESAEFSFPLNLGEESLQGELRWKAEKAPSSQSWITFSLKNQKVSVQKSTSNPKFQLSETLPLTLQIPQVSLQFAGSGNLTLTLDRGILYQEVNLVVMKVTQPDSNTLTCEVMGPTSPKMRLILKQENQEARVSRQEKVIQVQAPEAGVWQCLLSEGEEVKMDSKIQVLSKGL
Experimental: (§2) More specifically, GUCY2C-rCD4 fusion protein, in which the prepared human GUCY2C (SEQ ID NO: 112), monkey GUCY2C (SEQ ID NO: 114), and mouse GUCY2C (SEQ ID NO: 113) were fused, respectively, was bound to a place coated with streptavidin in a Nunc Maxisorp™96 well plate. After removing all the synthetic proteins not combined with washing buffer, the anti-GUCY2C scFV obtained in the culture solution was incubated in each well. After that, the affinity was measured by reading signals DELFIA enhanced using Eu-anti-tag Ab.

[3] = molecular target: T3, monkey GUCY2C-rCD4 fusion protein (Macaca fascicularis (crab-eating …, limits assumed)); assay: as above
T3 construct: Prepared by the same method as the human antigen; also called Cy-GUCY2C-rCD4; monkey GUCY2C recombinant antigen
T3 chain: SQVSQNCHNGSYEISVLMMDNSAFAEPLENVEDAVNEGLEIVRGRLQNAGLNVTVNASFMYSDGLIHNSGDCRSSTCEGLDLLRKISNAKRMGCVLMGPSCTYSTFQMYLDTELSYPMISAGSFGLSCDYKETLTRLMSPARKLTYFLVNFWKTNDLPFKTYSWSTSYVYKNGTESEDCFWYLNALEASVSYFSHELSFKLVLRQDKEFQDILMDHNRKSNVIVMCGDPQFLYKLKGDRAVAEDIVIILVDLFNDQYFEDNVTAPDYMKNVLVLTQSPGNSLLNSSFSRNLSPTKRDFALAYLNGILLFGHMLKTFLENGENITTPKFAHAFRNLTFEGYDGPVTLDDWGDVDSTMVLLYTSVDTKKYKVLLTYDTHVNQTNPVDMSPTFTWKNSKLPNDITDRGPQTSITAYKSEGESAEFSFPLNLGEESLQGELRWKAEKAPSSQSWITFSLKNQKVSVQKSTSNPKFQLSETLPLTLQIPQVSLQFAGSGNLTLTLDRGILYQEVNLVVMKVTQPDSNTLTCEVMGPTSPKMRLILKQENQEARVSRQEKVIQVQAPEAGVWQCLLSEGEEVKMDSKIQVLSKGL
Experimental: as §2

[4] = molecular target: T1, human GUCY2C-rCD4 fusion protein; assay: as above
Experimental: as §2

[5] = molecular target: T1, human GUCY2C-rCD4 fusion protein; assay: SPR (Sierra SPR-32), scFv on protein G, antigen 800-12.5 nM, 25 C
Experimental: Furthermore, the affinity to the GUCY2C antigen of the 18 kinds of scFvs produced in Example 1 was measured by SPR (Surface plasmon resonance) analysis.
SPR assay was performed with association time 2 min and dissociation time 10 min under the condition of 25 degrees of Celsius using MASS2 (Sierra SPR-32; Bruker). The data were analyzed with Software R3.

[6] = molecular target: T1, human GUCY2C-rCD4 fusion protein; assay: ranking ELISA (DELFIA), 50 nM scFv on anti-FLAG, biotinylated antigen, streptavidin-Eu
Experimental: as §1

Affinity Ranking ELISA (5 nM) signal [1]: 4740
Binding ELISA signal [2]: 17100
Binding ELISA signal [3]: 51100
Binding ELISA signal [4]: 79000
Kd [5]: 3.73 µM
Affinity Ranking ELISA (50 nM) signal [6]: 27700
B1: scFv A07 (scFv)
scFv: QVQLQESGPGLVKPSETLSLTCTVSGGSISSYYWSWIRQPPGKGLEWIGSIYYSGSTNYNPSLKSRVTISRDKSKNQLFLKLNSMTAADTAVYYCARDVWGSGQSFDSWGQGTLVTVSSGGGGSGGGGSGGGASNFMLTQPHSVSESPGKTVTISCTRSSGSIASNYVQWYQQRLGSSPTTVIYEHSRRPSGVPDRFSASIDSSSNSASLTISGLKTEDEADYYCQSYDVSNRVFGGGTKLTVL
notes: also called 2427_01_C02
